Paper PMC2173853 (The Journal of Cell Biology, 2002)
Read-outs that look alike come from different tables or passages of the source.

Tests used:
Test in all cases: pull-down
[1] = molecular target: T1, Sly1p cleaved from purified GST–Sly1p (untagged soluble Sly1p) (S. cerevisiae, UniProt P22213 1-666)
T1 sequence: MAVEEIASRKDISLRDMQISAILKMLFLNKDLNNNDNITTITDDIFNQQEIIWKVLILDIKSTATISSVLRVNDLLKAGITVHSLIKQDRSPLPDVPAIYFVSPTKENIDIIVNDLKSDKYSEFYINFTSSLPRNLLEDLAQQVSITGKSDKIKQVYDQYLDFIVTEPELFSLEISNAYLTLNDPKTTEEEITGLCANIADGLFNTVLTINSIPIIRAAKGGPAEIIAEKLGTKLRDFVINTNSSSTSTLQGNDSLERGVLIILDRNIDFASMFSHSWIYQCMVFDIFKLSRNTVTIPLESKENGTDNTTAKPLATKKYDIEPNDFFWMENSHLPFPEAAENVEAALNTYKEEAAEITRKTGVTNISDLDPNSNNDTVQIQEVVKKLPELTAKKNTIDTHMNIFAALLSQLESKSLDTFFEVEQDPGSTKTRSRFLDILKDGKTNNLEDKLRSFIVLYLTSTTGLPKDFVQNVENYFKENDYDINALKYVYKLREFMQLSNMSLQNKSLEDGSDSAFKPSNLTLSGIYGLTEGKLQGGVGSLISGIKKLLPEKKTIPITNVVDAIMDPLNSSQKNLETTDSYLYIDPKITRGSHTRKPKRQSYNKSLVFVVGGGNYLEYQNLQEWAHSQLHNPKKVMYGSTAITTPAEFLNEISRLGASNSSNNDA

GST–Sec22p [2] = molecular target: T2, GST–Sec22p (yeast, UniProt P22214)
T2 sequence: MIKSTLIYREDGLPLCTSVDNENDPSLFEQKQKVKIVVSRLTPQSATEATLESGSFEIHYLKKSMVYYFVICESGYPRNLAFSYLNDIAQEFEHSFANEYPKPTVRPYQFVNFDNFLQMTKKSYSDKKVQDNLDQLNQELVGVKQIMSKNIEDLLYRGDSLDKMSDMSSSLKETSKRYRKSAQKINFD

[3] = molecular target: T3, heterodimeric GST–Sed5p–His10-Sly1p complex bound to beads (S. cerevisiae, UniProt Q01590;P22213)
T3 sequence 1: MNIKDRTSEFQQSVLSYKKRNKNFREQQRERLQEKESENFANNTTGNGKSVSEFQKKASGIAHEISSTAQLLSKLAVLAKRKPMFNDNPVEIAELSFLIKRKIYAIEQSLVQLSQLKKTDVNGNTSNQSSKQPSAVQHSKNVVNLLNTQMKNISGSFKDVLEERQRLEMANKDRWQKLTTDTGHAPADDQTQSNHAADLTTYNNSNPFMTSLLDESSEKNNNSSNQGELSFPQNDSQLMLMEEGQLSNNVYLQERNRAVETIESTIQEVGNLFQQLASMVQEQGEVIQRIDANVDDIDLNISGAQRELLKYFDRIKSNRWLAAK
T3 sequence 2: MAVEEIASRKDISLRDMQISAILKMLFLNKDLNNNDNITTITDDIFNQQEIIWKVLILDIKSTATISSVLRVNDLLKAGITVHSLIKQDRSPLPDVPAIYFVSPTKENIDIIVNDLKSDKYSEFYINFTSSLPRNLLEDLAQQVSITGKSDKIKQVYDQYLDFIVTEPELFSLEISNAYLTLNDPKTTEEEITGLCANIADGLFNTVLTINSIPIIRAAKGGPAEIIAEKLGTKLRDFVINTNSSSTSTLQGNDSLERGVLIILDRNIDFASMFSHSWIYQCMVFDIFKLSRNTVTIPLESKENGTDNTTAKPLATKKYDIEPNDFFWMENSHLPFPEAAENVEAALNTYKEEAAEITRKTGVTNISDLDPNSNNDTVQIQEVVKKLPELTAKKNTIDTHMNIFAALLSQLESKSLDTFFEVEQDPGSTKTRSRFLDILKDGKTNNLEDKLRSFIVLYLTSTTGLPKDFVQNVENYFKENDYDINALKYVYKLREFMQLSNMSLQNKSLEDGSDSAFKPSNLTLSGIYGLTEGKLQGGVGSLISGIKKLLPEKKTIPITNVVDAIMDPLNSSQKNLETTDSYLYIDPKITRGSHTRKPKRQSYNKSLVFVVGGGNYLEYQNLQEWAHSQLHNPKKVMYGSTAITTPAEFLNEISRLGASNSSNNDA

[4] = molecular target: T4, GST–Sed5p (entire cytosolic region) (S. cerevisiae, UniProt Q01590 1-324)
T4 sequence: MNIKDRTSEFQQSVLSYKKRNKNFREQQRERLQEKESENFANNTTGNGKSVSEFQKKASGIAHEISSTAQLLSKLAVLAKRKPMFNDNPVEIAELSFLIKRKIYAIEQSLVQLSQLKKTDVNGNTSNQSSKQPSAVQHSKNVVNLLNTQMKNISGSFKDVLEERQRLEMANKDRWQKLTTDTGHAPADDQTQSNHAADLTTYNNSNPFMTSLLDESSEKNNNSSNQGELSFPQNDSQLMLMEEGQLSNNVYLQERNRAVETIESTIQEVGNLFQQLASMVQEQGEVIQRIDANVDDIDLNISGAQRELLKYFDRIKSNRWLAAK

GST–Sec22p [5] = molecular target: T2, GST–Sec22p; remark: listed apart in the source
GST–Sec22p [6] = molecular target: T2, GST–Sec22p; remark: listed apart in the source
GST–Sec22p [7] = molecular target: T2, GST–Sec22p; remark: listed apart in the source

B1: GST–Sed5N (NH2-terminal domain) (domain or fragment)
chain: MNIKDRTSEFQQSVLSYKKRNKNFREQQRERLQEKESENFANNTTGNGKSVSEFQKKASGIAHEISSTAQLLSKLAVLAKRKPMFNDNPVEIAELSFLIKRKIYAIEQSLVQLSQLKKTDVNGNTSNQSSKQPSAVQHSKNVVNLLNTQMKNISGSFKDVLEERQRLEMANKDRWQKLTTDTGHAPADDQTQSNHAADLTTYNNSNPFMTSLLDESSEKNNNSSNQGELSFPQNDSQLMLMEEGQLSNNV
Question: Does B1 bind [1]?
Answer: binds

B2: His6-Bos1p lacking the transmembrane (TM) (domain or fragment)
chain: MNALYNHAVKQKNQLQQELARFEKNSVTAPISLQGSISATLVSLEKTVKQYAEHLNRYKEDTNAEEIDPKFANRLATLTQDLHDFTAKFKDLKQSYNENNSRTQLFGSGASHVMDSDNPFSTSETIMNKRNVGGASANGKEGSSNGGGLPLYQGLQKEQSVFERGNAQLDYILEMGQQSFENIVEQNKILSKVQDRMSNGLRTLGVSEQTITSINKRVFKDK
Question: What does the source list for B2?
Answer: stoichiometry of Sly1p–Sed5p–Bos1p–Sec22p–Bet1p in the isolated complex (GST–Sec22p [2]): 0.8 molar ratio (GST–Sec22p = 1.4); stoichiometry N [3]: 1.4 per Sed5p; stoichiometry N [4]: 1.3 per Sed5p

B3: His6-Sed5p (NH2-terminally His6-tagged Sed5p lacking the COOH-terminal membrane anchor) (domain or fragment)
chain: MNIKDRTSEFQQSVLSYKKRNKNFREQQRERLQEKESENFANNTTGNGKSVSEFQKKASGIAHEISSTAQLLSKLAVLAKRKPMFNDNPVEIAELSFLIKRKIYAIEQSLVQLSQLKKTDVNGNTSNQSSKQPSAVQHSKNVVNLLNTQMKNISGSFKDVLEERQRLEMANKDRWQKLTTDTGHAPADDQTQSNHAADLTTYNNSNPFMTSLLDESSEKNNNSSNQGELSFPQNDSQLMLMEEGQLSNNVYLQERNRAVETIESTIQEVGNLFQQLASMVQEQGEVIQRIDANVDDIDLNISGAQRELLKYFDRIKSNRWLAAK
Question: Which “stoichiometry of Sly1p–Sed5p–Bos1p–Sec22p–Bet1p in the isolated complex” value (GST–Sec22p [2]) does the source give for B3 here?
Answer: 1.2 molar ratio (GST–Sec22p = 1.4)

Question: And the “stoichiometry N” value (GST–Sec22p [5])?
Answer: 0.5 Sed5p per Sec22p

Question: And the “stoichiometry N” value (GST–Sec22p [6])?
Answer: 1.1 Sed5p per Sec22p

Question: And the “stoichiometry N” value (GST–Sec22p [7])?
Answer: 0.3 Sed5p per Sec22p
